Data published in article PMC8219104 (Research Square, 2021).

Target: SARS-CoV-2 spike receptor-binding domain (RBD), amino acids 333 to 529, bacteria-expressed and refolded (SARS-CoV-2, wild type (parental), UniProt P0DTC2)
Experiment: SPR
Conditions: both partners purified

B1: Sybody Sb68 (VHH)
VHH: QVQLVESGGGSVQAGGSLRLSCAASGSISSITYLGWFRQAPGKEREGVAALITVNGHTYYADSVKGRFTVSLDNAKNTVYLQMNSLKPEDTALYYCAAAAWGYAWPLHQDDYWYWGQGTQVTVSA
Kd: 63 nM
